Data from patent US20250361274A1, “PEPTIDE AND PEPTIDE-CONTAINING AGENT” (PEPTIDREAM INC., priority 2022, published 2025).
Bridge positions count the residues as written; N and C are the ends. Square brackets hold non-standard residues; d marks the D form. Ends that are not written are not given here. * marks the point of attachment. X8 = 4‑(carboxymethyl)piperazine‑1‑carbonyl, O=C(O)CN1CCN(C(=O)*)CC1; Phe(4-COOH) = N[C@@H](Cc1ccc(C(=O)O)cc1)C(=O)O; Bip = N[C@@H](Cc1ccc(-c2ccccc2)cc1)C(=O)O; Phe(4-F) = N[C@@H](Cc1ccc(F)cc1)C(=O)O; 4Pal = N[C@@H](Cc1ccncc1)C(=O)O; Tic = O=C(O)[C@@H]1Cc2ccccc2CN1; Cit = NC(=O)NCCC[C@H](N)C(=O)O; βAla = NCCC(=O)O

How the values were obtained:
BMP4 = molecular target: T1, BMP4 (Homo sapiens, UniProt P12644); assay: BMP4 signal transduction inhibitory activity: SMAD1 phosphorylation by BMP4 stimulus, AlphaLISA SureFire, A549 cells; type: cell-based; details: inhibition of SMAD1 phosphorylation by BMP4 stimulus, AlphaLISA, A549 cells; class by peptide concentration zone
T1 sequence (P12644 293-408): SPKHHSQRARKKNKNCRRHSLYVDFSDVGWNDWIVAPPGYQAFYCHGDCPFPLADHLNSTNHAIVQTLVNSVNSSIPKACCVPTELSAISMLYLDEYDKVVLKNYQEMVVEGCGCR
Procedure: In the present Example, a BMP4 signal transduction inhibitory activity of each peptide consisting of an amino acid sequence set forth in any of SEQ ID NOs: 5 to 240 and 243 to 421 synthesized in Example 10 was verified by phosphorylation of SMAD1 caused by BMP4 stimulus. A549 cells were cultured in MEM (Thermo Fisher Scientific) containing 10% FBS (Thermo Fisher Scientific), 1×Non-essential amino acids (Thermo Fisher Scientific), and 50 μg/mL Gentamicin. After TrypLE (Gibco) was used to peel the cells, seeding was performed in a 96-well plate for adhesion cells so that the number of cells would be 20,000 per well, followed by culturing for 48 hours. After the cells were cultured as described above, the culture medium was replaced with a peptide solution or recombinant Human Noggin Protein (R&D) solution as a positive control diluted to various concentrations in a nutrition-starved culture medium containing 0.1% BSA (Sigma) instead of FBS Thirty minutes after culturing, […], to stimulate it for 60 minutes. The culture medium was removed and the cells were lysed with Lysis Buffer provided with AlphaLISA (registered trademark) SureFire (registered trademark) Ultra SMAD1 (p-[…]/465) Assay kit (PerkinElmer). According to the protocol of the kit, a signal was detected using SpectraMax (registered trademark) Paradigm (registered trademark) multimode microplate reader (Molecular Devices). The obtained signal was analysed using GraphPad Prism (GraphPad Software). The % inhibition was calculated by considering non-stimulation as 100% inhibition and BMP stimulation only as 0% inhibition. Regarding SEQ ID NOs: 5 to 187, the concentrations of the peptides synthesized in the same manner as in Example 2 (shown as 2 in the row of Synthesis) were 0.02 nM, 0.2 nM, and 2 nM, and the concentrations of the peptides synthesized in the same manner as in Example 1 (shown as 1 in the row of Synthesis) were 0.2 nM, 2 nM, and 20 nM. The evaluation results were based on the results of evaluation using the peptides synthesized in the same manner as in Example 2. […] Regarding SEQ ID NOs: 243 to 321, the test was performed at the concentrations described in Table 6. […] Regarding SEQ ID NOs: 322 to 421, the test was performed at the concentrations described in Table 7. […] The evaluation tests of the signal transduction inhibitory activities of SEQ ID NOs: 87, 177, and 181 are as follows. Specifically, the inhibitory activity of BMP4 was evaluated in the same manner as in Example 11 that used A549 cells. Eight concentrations of the peptides were used at a common ratio of 1/3 starting from 2 nM. The inhibitory activity of BMP7 was evaluated in the same manner as in Example 12. Eight concentrations of the peptides were used at a common ratio of 1/3 starting from 100 nM. Note that recombinant Human Noggin Protein (R&D) as a positive control was used at the same concentration as that of the peptide. […] The inhibitory activity of BMP7 was evaluated using eight concentrations of the peptides at a common ratio of 1/3 starting from 1,000 nM in the same manner as in Example 12.

BMP7 = molecular target: T2, BMP7 (Homo sapiens, UniProt P18075); assay: BMP7 signal transduction inhibitory activity: SMAD1 phosphorylation by BMP7 stimulus, A549 cells; type: cell-based; details: inhibition of SMAD1 phosphorylation by BMP7 stimulus, AlphaLISA, A549 cells; class by peptide concentration zone
T2 sequence (P18075 293-431): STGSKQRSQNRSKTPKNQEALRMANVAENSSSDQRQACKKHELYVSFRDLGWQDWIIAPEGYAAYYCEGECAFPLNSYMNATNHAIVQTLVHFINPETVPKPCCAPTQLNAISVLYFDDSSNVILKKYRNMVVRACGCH
Procedure: In the present Example, BMP7 signal transduction inhibitory activity of each peptide consisting of an amino acid sequence set forth in any of SEQ ID NOs: 5 to 240 and 243 to 421 synthesized in Example 10 was verified by phosphorylation of SMAD1 caused by BMP7 stimulus. The evaluation was performed using 10 nM of BMP7 instead of BMP 4. Regarding SEQ ID NOs: 5 to 240, the concentrations of the peptides synthesized in the same manner as in Example 2 (shown as 2 in the row of Synthesis) were 1 nM, 10 nM, and 100 nM, and the concentrations of the peptides synthesized in the same manner as in Example 1 (shown as 1 in the row of Synthesis) were 10 nM, 100 nM, and 1,000 nM, similarly with Example 11. […] Regarding SEQ ID NOs: 243 to 273 and SEQ ID NOs: 299 to 321, the test was performed at the concentrations (10, 100, 1,000 nM) described in Table 6. […] Regarding SEQ ID NOs: 274 to 298, the test was performed at the concentrations (100, 300, 1,000 nM) described in Table 6. […] Regarding SEQ ID NOs: 322 to 370 and SEQ ID NOs: 393 to 421, the test was performed at the concentrations (1, 10, 100 nM). […] Regarding SEQ ID NOs: 371 to 391, the test was performed at the concentrations (10, 30, 90 nM). […] The evaluation tests of the signal transduction inhibitory activities of SEQ ID NOs: 87, 177, and 181 are as follows. Specifically, the inhibitory activity of BMP4 was evaluated in the same manner as in Example 11 that used A549 cells. Eight concentrations of the peptides were used at a common ratio of 1/3 starting from 2 nM. The inhibitory activity of BMP7 was evaluated in the same manner as in Example 12. Eight concentrations of the peptides were used at a common ratio of 1/3 starting from 100 nM. Note that recombinant Human Noggin Protein (R&D) as a positive control was used at the same concentration as that of the peptide. […] The inhibitory activity of BMP7 was evaluated using eight concentrations of the peptides at a common ratio of 1/3 starting from 1,000 nM in the same manner as in Example 12.

Substance	aLISA BMP4 (BMP4)	aLISA BMP7 (BMP7)
41 ({CH2CO}-A[Tic]VYVDK[Bip]PYP[Bip]Y[Phe(4-COOH)][Phe(4-COOH)]SCG-NH2; thioether N-17) [compound 41]	C (showed an inhibitory activity of less than 50% in 0.2 nM-addition zone and showed an inhibitory activity of 50% or more in 2 nM-addition zone were defined as B or C)	ND (the inhibitory activity was less than 30% at the maximum concentration evaluated)
42 (Ac-AKVYVDK(Ac)[Bip]PYP[Bip]Y[Phe(4-COOH)][Phe(4-COOH)]SCG-NH2; thioether (positions not given here); not fully specified (bridges)) [compound 42]	A (showed an inhibitory activity of 50% or more in a zone to which the peptide was added to in an amount of 0.2 nM)	ND (the inhibitory activity was less than 30% at the maximum concentration evaluated)
43 (Ac-AKVYVD[4Pal][Bip]PYP[Bip]Y[Phe(4-COOH)][Phe(4-COOH)]SCG-NH2; thioether (positions not given here); not fully specified (bridges)) [compound 43]	C (showed an inhibitory activity of less than 50% in 0.2 nM-addition zone and showed an inhibitory activity of 50% or more in 2 nM-addition zone were defined as B or C)	ND (the inhibitory activity was less than 30% at the maximum concentration evaluated)
45 (Ac-AK(X8)VYVK(X8)K[Bip]PYP[Bip]Y[Phe(4-COOH)][Phe(4-COOH)]SCG-NH2; thioether (positions not given here); not fully specified (bridges)) [compound 45]	A (showed an inhibitory activity of 50% or more in a zone to which the peptide was added to in an amount of 0.2 nM)	ND (the inhibitory activity was less than 30% at the maximum concentration evaluated)
46 (ARVYVDR[Bip]PYP[Bip]Y[Phe(4-COOH)][Phe(4-COOH)]SC) [compound 46]	A (showed an inhibitory activity of 50% or more in a zone to which the peptide was added to in an amount of 0.2 nM)	ND (the inhibitory activity was less than 30% at the maximum concentration evaluated)
47 (Ac-ARVYVDR[Bip]PYP[Bip]Y[Phe(4-COOH)][Phe(4-COOH)]SC[βAla][dE]-OH; thioether (positions not given here); not fully specified (bridges)) [compound 47]	A (showed an inhibitory activity of 50% or more in a zone to which the peptide was added to in an amount of 0.2 nM)	ND (the inhibitory activity was less than 30% at the maximum concentration evaluated)
48 (Ac-ARVYVDR[Bip]PYP[Bip]Y[Phe(4-COOH)][Phe(4-COOH)]SC[βAla]K-NH2; thioether (positions not given here); not fully specified (bridges)) [compound 48]	C (showed an inhibitory activity of less than 50% in 0.2 nM-addition zone and showed an inhibitory activity of 50% or more in 2 nM-addition zone were defined as B or C)	ND (the inhibitory activity was less than 30% at the maximum concentration evaluated)
49 (Ac-ARVYVDR[Bip]PYP[Bip]Y[Phe(4-COOH)][Phe(4-COOH)]SC[βAla]-PEG12Me; thioether (positions not given here); not fully specified (bridges)) [compound 49]	C (showed an inhibitory activity of less than 50% in 0.2 nM-addition zone and showed an inhibitory activity of 50% or more in 2 nM-addition zone were defined as B or C)	ND (the inhibitory activity was less than 30% at the maximum concentration evaluated)
50 (Ac-ARVYVDR[Bip]PYP[Bip]Y[Phe(4-COOH)][Phe(4-COOH)]SC[βAla]K(OCOmPEG10000)-NH2; thioether (positions not given here); not fully specified (bridges)) [compound 50]	D (showed inhibitory activity of less than 50% in 2 nM-addition zone)	B (showed less than 50% of inhibitory activity in 1 nM-addition zone and showed 50% or more of inhibitory activity in 10 nM-addition zone)
53 (Ac-ERVYVDR[Bip]PYP[Bip]Y[Phe(4-COOH)][Phe(4-COOH)]SCG-NH2; thioether (positions not given here); not fully specified (bridges)) [compound 53]	A (showed an inhibitory activity of 50% or more in a zone to which the peptide was added to in an amount of 0.2 nM)	ND (the inhibitory activity was less than 30% at the maximum concentration evaluated)
57 (Ac-ARVYVDK(X8)[Bip]PYP[Bip]Y[Phe(4-COOH)][Phe(4-COOH)]SCG-NH2; thioether (positions not given here); not fully specified (bridges)) [compound 57]	C (showed an inhibitory activity of less than 50% in 0.2 nM-addition zone and showed an inhibitory activity of 50% or more in 2 nM-addition zone were defined as B or C)	C (showed less than 50% of inhibitory activity in 10 nM-addition zone and showed 50% or more of inhibitory activity in 100 nM-addition zone)
58 (Ac-ARVYVD[Cit][Bip]PYP[Bip]Y[Phe(4-COOH)][Phe(4-COOH)]SCG-NH2; thioether (positions not given here); not fully specified (bridges)) [compound 58]	A (showed an inhibitory activity of 50% or more in a zone to which the peptide was added to in an amount of 0.2 nM)	C (showed less than 50% of inhibitory activity in 10 nM-addition zone and showed 50% or more of inhibitory activity in 100 nM-addition zone)
59 (Ac-AK(X8)VYVDR[Bip]PYP[Bip][Phe(4-F)][Phe(4-COOH)][Phe(4-COOH)]SCG-NH2; thioether (positions not given here); not fully specified (bridges)) [compound 59]	A (showed an inhibitory activity of 50% or more in a zone to which the peptide was added to in an amount of 0.2 nM)	C (showed less than 50% of inhibitory activity in 10 nM-addition zone and showed 50% or more of inhibitory activity in 100 nM-addition zone)
